Source: paper PMC5518878
Blank lines part the entries; values can stand above or below the binder they belong to.

Target: full-length rhodopsin of Figure 2A, fused to a TEV cleavage site and tTA (human) (UniProt P08100)
Experiment: Tango assay (TEV protease proximity reporter); HTL cells co-transfected with receptor-TEV cleavage site-tTA and GRK-TEV protease fusions; luciferase reporter; vehicle or ligand overnight (ATR 10 μM for rhodopsin; paroxetine; DHE 0.1 μM, GR 127935 1 μM; SX 1 μM, ICI 118 551 1 μM); DNA amounts adjusted for similar expression

Chain of full-length rhodopsin of Figure 2A, fused to a TEV cleavage site and tTA (human) (P08100 whole entry, the tested form may be a part): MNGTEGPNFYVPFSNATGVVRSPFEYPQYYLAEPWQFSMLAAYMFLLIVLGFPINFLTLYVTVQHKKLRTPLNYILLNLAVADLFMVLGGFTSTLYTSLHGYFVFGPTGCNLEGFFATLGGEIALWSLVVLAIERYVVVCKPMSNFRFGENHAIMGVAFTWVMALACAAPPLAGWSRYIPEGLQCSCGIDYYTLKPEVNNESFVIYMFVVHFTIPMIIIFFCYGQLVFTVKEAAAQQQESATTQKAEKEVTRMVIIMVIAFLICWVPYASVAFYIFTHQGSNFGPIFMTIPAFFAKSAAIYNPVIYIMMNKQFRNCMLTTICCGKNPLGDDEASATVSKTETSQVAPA

binding capacity, percent of FL GRK1: 70%
B1: GRK1 (1-183)-TEV protease fusion (domain or fragment)
chain: MDFGSLETVVANSAFIAARGSFDGSSSQPSRDKKYLAKLKLPPLSKCESLRDSLSLEFESVCLEQPIGKKLFQQFLQSAEKHLPALELWKDIEDYDTADNDLQPQKAQTILAQYLDPQAKLFCSFLDEGIVAKFKEGPVEIQDGLFQPLLQATLAHLGQAPFQEYLGSLYFLRFLQWKWLEAQ

binding capacity, percent of FL GRK1: 70%
B2: GRK1 (31-183)-TEV protease fusion (domain or fragment)
chain: RDKKYLAKLKLPPLSKCESLRDSLSLEFESVCLEQPIGKKLFQQFLQSAEKHLPALELWKDIEDYDTADNDLQPQKAQTILAQYLDPQAKLFCSFLDEGIVAKFKEGPVEIQDGLFQPLLQATLAHLGQAPFQEYLGSLYFLRFLQWKWLEAQ
